Reference: patent US20200392228A1 (PANDION OPERATIONS, published 2020)

T1: mouse MAdCAM expressed on cells (mouse, UniProt Q61826 22-405)
T1 construct: whole, on cells
T1 sequence (looked up): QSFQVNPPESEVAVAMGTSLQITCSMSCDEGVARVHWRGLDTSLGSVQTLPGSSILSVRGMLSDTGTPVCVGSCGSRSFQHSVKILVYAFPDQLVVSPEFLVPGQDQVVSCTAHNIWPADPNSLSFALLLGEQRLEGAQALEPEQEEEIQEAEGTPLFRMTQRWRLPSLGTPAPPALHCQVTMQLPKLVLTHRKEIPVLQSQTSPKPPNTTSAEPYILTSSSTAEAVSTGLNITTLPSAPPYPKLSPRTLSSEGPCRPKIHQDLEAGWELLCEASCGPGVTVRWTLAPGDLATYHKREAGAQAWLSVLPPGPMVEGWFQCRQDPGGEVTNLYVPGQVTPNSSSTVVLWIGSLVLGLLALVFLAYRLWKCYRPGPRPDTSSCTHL

B1: MAdCAM antibody Clone ID 54 of Table 7 (IgG) (antibody, V domains shown)
VH: QVQLVQSGAEVKKPGSSVKVSCKASGGTLSRYGVSWVRQAPGQGLEWMGGIIPIFGTTNYAQKFQGRVTITADESTSTAYMELSSLRSEDTAVYYCARDRVYYDSSGYPTWYFDLWGRGTLVTVSS
VL: EIVMTQSPATLSVSPGERATLSCRASQSVSSSYLAWYQQKPGQAPRLLIYGASTRATGIPARFSGSGSGTEFTLTISSLQSEDFAVYYCQQYGSSPITFGQGTKVEIK
notes: IgG format
B2: MAdCAM antibody Clone ID 35 of Table 7 (IgG) (antibody, V domains shown)
VH: QVQLVQSGAEVKKPGASVKVSCKASGYTFTGYYIHWVRQAPGQGLEWMGWMNPNSGNTGYAQKFQGRVTMTRDTSTSTVYMELSSLRSEDTAVYYCARDPGFLGYSSGGSSYDGWFDPWGQGTLVTVSS
VL: DIQMTQSPSSLSASVGDRVTITCRASQSISSYLHWYQQKPGKAPKLLIYAASSLQSGVPSRFSGSGSGTDFTLTISSLQPEDFATYYCQQSYTAPYTFGQGTKLEIK
notes: IgG format
B3: MAdCAM antibody Clone ID 56 of Table 7 (IgG) (antibody, V domains shown)
VH: EVQLVESGGGLVKPGGSLRLSCAASGFTFSSYWMSWVRQAPGKGLEWVSAIGTGGGTYYAAPVKGRFTISRDDSKNTLYLQMNSLKTEDTAVYYCAREWLVPYYGMDVWGQGTTVTVSS
VL: DIQMTQSPSSLSASVGDRVTITCRASQSISRWLAWYQQKPGKAPKLLIYGASNLQSGVPSRFSGSGSGTDFTLTISSLQPEDFATYYCQQSYSTPWTFGQGTKVEIK
notes: IgG format
B4: MAdCAM antibody Clone ID 32 of Table 7 (IgG) (antibody, V domains shown)
VH: QVQLVQSGAEVKKPGASVKVSCKASGYTLTTWYMYWVRQAPGQGLEWMGWINPNRGATNYAQKFQGRVTMTRDTSTSTVYMELSSLRSEDTAVYYCAKGDLWGAMDVWGQGTLVTVSS
VL: DIQMTQSPSSLSASVGDRVTITCRASDNIGSWLAWYQQKPGKAPKLLIYAASSLQSGVPSRFSGSGSGTDFTLTISSLQPEDFATYYCQQGYSTPPTFGQGTKVEIK
notes: IgG format
B5: MAdCAM antibody Clone ID 69 of Table 7 (IgG) (antibody, V domains shown)
VH: QVQLVQSGAEVKKPGASVKVSCKASGYTFTSYYMHWVRQAPGQGLEWMGIIDPSGGSTSYAQKFQGRVTMTRDTSTSTVYMELSSLRSEDTAVYYCAREEWSSGGVGYFDYWGQGTLVTVSS
VL: DIQMTQSPSSLSASVGDRVTITCRASQGISSYLAWYQQKPGKAPKLLIYATSSLQTGVPSRFSGSGSGTDFTLTISSLQPEDFATYYCQQTYSIPITFGQGTRLEIK
notes: IgG format
B6: MAdCAM antibody Clone ID 53 of Table 7 (IgG) (antibody, V domains shown)
VH: QVQLVQSGAEVKKPGASVKVSCKASGYTFTSYYMHWVRQAPGQGLEWMGWMNPNSGNTGYAQKFQGRVTMTRDTSTSTVYMELSSLRSEDTAVYYCAREGLGYCTNGVCWNYYGMDVWGQGTLVTVSS
VL: DIQMTQSPSSLSASVGDRVTITCRASQGISSWLAWYQQKPGKAPKLLIYGASSLQSGVPSRFSGSGSGTDFTLTISSLQPEDFATYYCQQSYSTPYTFGQGTKVEIK
notes: IgG format
B7: MAdCAM antibody Clone ID 71 of Table 7 (IgG) (antibody, V domains shown)
VH: QVQLVQSGAEVKKPGASVKVSCKASGYTFTSYYMHWVRQAPGQGLEWMGIINPSGGSTSYAQKFQGRVTMTRDTSTSTVYMELSSLRSEDTAVYYCARDSVAGTGGRYYGMDVWGQGTLVTVSS
VL: DIQMTQSPSSLSASVGDRVTITCRASQGISNYFAWYQQKPGKAPKLLIYAASSLQGGVPSRFSGSGSGTDFTLTISSLQPEDFATYYCQQSYSLPYTFGQGTKLEIK
notes: IgG format
B8: MAdCAM antibody Clone ID 40 of Table 7 (IgG) (antibody, V domains shown)
VH: QVQLVQSGAEVKKPGASVKVSCKASGYTLTTWYMYWVRQAPGQGLEWMGWINPNRGATNYAQKFQGRVTMTRDTSTSTVYMELSSLRSEDTAVYYCAKGDLWGAMDVWGQGTLVTVSS
VL: DIQMTQSPSSLSASVGDRVTITCRASDNIGSWLAWYQQKPGKAPKLLIYAASSLQSGVPSRFSGSGSGTDFTLTISSLQPEDFATYYCQQGYSTPPTFGQGTKVEIK
notes: IgG format
B9: MAdCAM antibody Clone ID 70 of Table 7 (IgG) (antibody, V domains shown)
VH: QVQLVQSGAEVKKPGASVKVSCKASGYPFTDYYMHWVRQAPGQGLEWMGWIKPNSGDTEYAQKFQGRVTMTRDTSTSTVYMELSSLRSEDTAVYYCARDRFVGKPDYYYYGMDVWGQGTMVTVSS
VL: DIQMTQSPSSLSASVGDRVTITCRASQSISVWLAWYQQKPGKAPKLLIYAASSLQSGVPSRFSGSGSGTDFTLTISSLQPEDFATYYCQQSYDTPYTFGQGTKLEIK
notes: IgG format
B10: MAdCAM antibody Clone ID 12 of Table 7 (IgG) (antibody, V domains shown)
VH: QVQLVQSGAEVKKPGASVKVSCKASGYTLTTWYMYWVRQAPGQGLEWMGWINPNRGATNYAQKFQGRVTMTRDTSTSTVYMELSSLRSEDTAVYYCAKGDLWGAMDVWGQGTLVTVSS
VL: DIQMTQSPSSLSASVGDRVTITCRASDNIGSWLAWYQQKPGKAPKLLIYAASSLQSGVPSRFSGSGSGTDFTLTISSLQPEDFATYYCQQGYSTPPTFGQGTKVEIK
notes: IgG format
B11: MAdCAM antibody Clone ID 67 of Table 7 (IgG) (antibody, V domains shown)
VH: QVQLVQSGAEVKKPGASVKVSCKASGYTFTGYYMHWVRQAPGQGLEWMGMIYPRDGSTSYAQKFQGRVTMTRDTSTSTVYMELSSLRSEDTAVYYCAMTGWGYGMDVWGKGTTVTVSS
VL: DIQMTQSPSSLSASVGDRVTITCRASQGINNYLAWYQQKPGKAPKLLIYDASTLQSGVPSRFSGSGSGTDFTLTISSLQPEDFATYYCQQSYSAPPTFGQGTKLEIK
notes: IgG format
B12: MAdCAM antibody Clone ID 33 of Table 7 (IgG) (antibody, V domains shown)
VH: QVQLVQSGAEVKKPGASVKVSCKASGYTLTTWYMYWVRQAPGQGLEWMGWINPNRGATNYAQKFQGRVTMTRDTSTSTVYMELSSLRSEDTAVYYCAKGDLWGAMDVWGQGTTVTVSS
VL: DIQMTQSPSSLSASVGDRVTITCRASDNIGSWLAWYQQKPGKAPKLLIYAASSLQSGVPSRFSGSGSGTDFTLTISSLQPEDFATYYCQQGYSTPPTFGQGTKVEIK
notes: IgG format
B13: MAdCAM antibody Clone ID 62 of Table 7 (IgG) (antibody, V domains shown)
VH: QVQLVQSGAEVKKPGASVKVSCKASGYTFTSYDINWVRQAPGQGLEWMGWINPNSGTTGYAQKFQGRVTMTRDTSTSTVYMELSSLRSEDTAVYYCARSPYYYYGMDVWGQGTTVTVSS
VL: DIQMTQSPSSLSASVGDRVTITCRASHFISRWVAWYQQKPGKAPKLLIYAASTLQSGVPSRFSGSGSGTDFTLTISSLQPEDFATYYCQQSYSGISFGPGTKVDIK
notes: IgG format
B14: MAdCAM antibody Clone ID 45 of Table 7 (IgG) (antibody, V domains shown)
VH: EVQLVESGGGLVKPGGSLRLSCAASGFTFGDYAMSWVRQAPGKGLEWVSYISGDIGYTNYAAPVKGRFTISRDDSKNTLYLQMNSLKTEDTAVYYCARDVAATGNWYFDLWGRGTLVTVSS
VL: not shown
notes: IgG format
B15: MAdCAM antibody Clone ID 55 of Table 7 (IgG) (antibody, V domains shown)
VH: EVQLLESGGGLVQPGGSLRLSCAASGFTFDDFAMHWVRQAPGKGLEWVSGISGNGDSRYYADSVKGRFTISRDNSKNTLYLQMNSLRAEDTAVYYCARDASYGGNYGMDVWGQGTTVTVSS
VL: DIQMTQSPSSLSASVGDRVTITCQASQDIRNYLNWYQQKPGKAPKLLIYKASTLESGVPSRFSGSGSGTDFTLTISSLQPEDFATYYCQQANSFPLTFGPGTKVDIK
notes: IgG format
B16: MAdCAM antibody Clone ID 64 of Table 7 (IgG) (antibody, V domains shown)
VH: EVQLLESGGGLVQPGGSLRLSCAASGFTFSNSDMNWVRQAPGKGLEWVAHIWNDGSQKYYADSVKGRFTISRDNSKNTLYLQMNSLRAEDTAVYYCARDRTDPGYSSAMDVWGQGTTVTVSS
VL: DIQMTQSPSSLSASVGDRVTITCRASQDIRNYLGWYQQKPGKAPKLLIYDASSLETGVPSRFSGSGSGTDFTLTISSLQPEDFATYYCQQATSLPLTFGGGTKVEIK
notes: IgG format
B17: MAdCAM antibody Clone ID 63 of Table 7 (IgG) (antibody, V domains shown)
VH: EVQLLESGGGLVQPGGSLRLSCAASGFTFNNYGMNWVRQAPGKGLEWVSRINSDGSSTSYADSVKGRFTISRDNSKNTLYLQMNSLRAEDTAVYYCARGAYYYYYMDVWGQGTLVTVSS
VL: EIVMTQSPATLSVSPGERATLSCRASQSVSGSYLAWYQQKPGQAPRLLIYATSSRASGIPARFSGSGSGTEFTLTISSLQSEDFAVYYCQQYYSGLTFGQGTKVEIK
notes: IgG format
B18: MAdCAM antibody Clone ID 68 of Table 7 (IgG) (antibody, V domains shown)
VH: EVQLLESGGGLVQPGGSLRLSCAASGFTFGDYAMSWVRQAPGKGLEWVAVVSYDGTNKYYADSVKGRFTISRDNSKNTLYLQMNSLRAEDTAVYYCAKDICSSTSCYFDLWGRGTLVTVSS
VL: DIQMTQSPSSLSASVGDRVTITCRASQNINNYVNWYQQKPGKAPKLLIYDASNLETGVPSRFSGSGSGTDFTLTISSLQPEDFATYYCQQANSFPPTFGQGTRLEIK
notes: IgG format
B19: MAdCAM antibody Clone ID 66 of Table 7 (IgG) (antibody, V domains shown)
VH: QVQLVQSGAEVKKPGASVKVSCKASGYTFTGHYMHWVRQAPGQGLEWMGIINPSGGSTSYAQKFQGRVTMTRDTSTSTVYMELSSLRSEDTAVYYCARDGAWFGEEYYYGMDVWGQGTTVTVSS
VL: DIQMTQSPSSLSASVGDRVTITCRASQGISNWLAWYQQKPGKAPKLLIYDASNLETGVPSRFSGSGSGTDFTLTISSLQPEDFATYYCQQYYSFPLYTFGQGTKVEIK
notes: IgG format
B20: MAdCAM antibody Clone ID 61 of Table 7 (IgG) (antibody, V domains shown)
VH: QVQLVQSGAEVKKPGASVKVSCKASGDTFTGYYIHWVRQAPGQGLEWMGWINPNSGGTNYAQKFQGRVTMTRDTSTSTVYMELSSLRSEDTAVYYCARSGLWLGSYYGMDVWGQGTLVTVSS
VL: DIQMTQSPSSLSASVGDRVTITCRASQTISIWLAWYQQKPGKAPKLLIYDASTLQSGVPSRFSGSGSGTDFTLTISSLQPEDFATYYCQQYSSYPLTFGQGTKVEIK
notes: IgG format

biological target: T1, mouse MAdCAM expressed on cells; assay: cell binding

Binding result, no binding:
B1
B2
B3
B4
B5
B6
B7
B8
B9
B10
B11
B12
B13
B14
B15
B16
B17
B18
B19
B20
